Like-named read-outs stand apart in the source and are kept apart here.
How the values were obtained:
Experiment in all cases: SPR
[1] = target: T1, VACV , residues A3-G181 (vaccinia virus (VACV), UniProt P07612 3-181)
[2] = target: T2, MPXV [change], residues A3-G181, C-terminal 6×His tag (pCAGGS, Expi293F) (mpox virus (MPXV))
[3] = target: T1, VACV , residues A3-G181; remark: listed apart in the source
[4] = target: T2, MPXV [change], residues A3-G181, …; remark: listed apart in the source
[5] = target: T1, VACV , residues A3-G181; remark: listed apart in the source

Row | Binder | Kd [1] [nM] | Kd [2] [nM] | Kd [3] [nM] | Kd [4] [nM] | koff [5] [s⁻¹]
1 | mMM1-16 monoclonal antibody (mouse variable regions, human IgG1/Igκ constant regions) (antibody, V domains shown) VH: QIQLQQSGAELARPGASVKLSCKASGYTFITYWIQWVKQRPGQGLEWIGAIYPGDGDTRYTQKFKAKATLTADKSSSTAYMQLSTLTSEDSAVYFCAKGDTYPAAMDYWGQGTSVTVSS VL: DIQMTQSPASLSASVGETVTITCRTSGNIHNYLAWYQQKQGRSPQLLVNNAKTLADGVPSRFSGSGSGTQYSLKINSLQPEDIGSYYCQHFWITPYTFGGGTKLEIK | 0.72 | 6.3 | – | – | –
2 | hmMM1-40, humanized mMM1-40 monoclonal antibody (antibody, V domains shown) VH: QVQLVQSGAEVKKPGASVKVSCKASGYIFTRYWMHWVRQAPGQGLEWMGYINPSTGYTEYNQKFKDRVTMTRDTSTSTVYMELSSLRSEDTAVYYCARSDYTNYVFEYWGQGTLVTVSS VL: DVVMTQSPLSLPVTLGQPASISCRSSQSLVHSNGNTYLHWFQQRPGQSPRRLIYKVSNRFSGVPDRFSGSGSGTDFTLKISRVEAEDVGVYYCSQSTHVPYTFGGGTKVEIK | – | – | 0.47 | 0.48 | 6.19e-05

Reference: PMC12514038 (2025)
